According to the DeepSol protein solubility set:

Assay: soluble on expression in E. coli; label from the status in PepcDB or PDB records

Row | Sequence | soluble on expression in E. coli
1 | MSLAKTIAYLRVSTSQQDLKNQKFEILDYAQKNGLSIDDFVEVEISSRKSVEERKIDYLVSMLSQGDRVIVSELSRIGRSTVEVLNIINELASKKVFLIAIKQNLNINGSENLQAKVMVTMFSLFAELERDLISDRTKRALEARKAAGVKLGRPKGATGVSKLDGMEGQITELLRKQVSLSSIAKIFSVSRGTVYSFIATRGLTAEGHHHHHH | not soluble
2 | MSLALAVQNTDTIGVVVTDVTDAFFAILVKAVDKVAEAHQKTILIGIGYHHAEKEREAINTLLRKRCSSLVVHSKALSDDELSHYLNTVQGMVIINRVIKGYEHRCVSLDNQKGTYLATEMLIRYGHQHIAYIGSNHAIFDEVERRNGYLAALKDHNYLIIEQAITLNSPDFEGGEKAMIDLLSYNKNLTAVVAYNDSMAAGAISVLNENNISVPSQFSIIGFDDMPIARYLIPKLTTIRYPIDLMATYAAKLALSLTDEKIITPPVVQFNPTLVRRFSVESREGHHHHHH | soluble
3 | MSLALSRIDGQDELFVGGLWALRRSDSLTDRRITHVLSLVPFDISSLKNFKDEPWIDYGKDFRHQLIDIDDVEDSDLLIELPKAVRFIEEGLGANYMEHADDDGGVSLEKDVDVVEKKRKKKGGVFVHCAVGKSRSVSAVIAYLLRRYPSRFDPNITPTAISDPSQSTGSETSAEKRSRKETAQEAVHAALTYVRRTRPMAEPNEGFMEQLALWWEMEEGHHHHHH | not soluble
4 | MSLALVAEKLSEQWRAELDSRGLDAAPMADWMTVCRRLSLALAGTGLSLEEIRSLQRLPEADRVETHRERLLNSERFHHYWAERTARYLVGADEGPFIFYRGRRFRSWLTEQYAKNTRYDELVRMLITAEGVWTDRPEVNFHTVTFDSGDNAPDPIRLAARTTRAFLGVRIDCLQCHDDFLGNVSLGDASWIMCGVGDATMQAAAEGDAKYVLREGTQEDFHSLAAFFTAATSEGVQGLKDKRANYEYQYLYADETVPVEPNVPFLRELLPPRPENRQDDSSDDDSTDTTDESASDEPSDAPEPLELPRYLSDRERLAYWLTHTENKPAARAAVTRVWTLLFGQPPAIETDYGFQVGEVDNLPLDSPPSPLIETLTEAFIESDFNIRKLIRCITDSPAFRVSSRADFDVTEQHELAMAVFPVTHLRSEQVAGAAIQAGRIKTINRDSSFLVQLQQFGSLNDFLKRYGDLGEDEFTQQPVTITQRLVMLNGKLINETASPNPILNASSHIEMFAKDDEDVVRTLYLTVLNREPSERELEHFVKRLTAESREQNDPPTSRKQEITDLTWILLNSSEFAWNHEGHHHHHH | not soluble
5 | MSLANNKVHFIAIGGAVMHNLALALHHKGYLVSGSDDEIFEPSRTRLAAYNLLPAEMGWFPEKITTDLDAVILGMHARNDNPELQKARELGIKIYSFPEYIYEQSKDKQRIVIAGSHGKTTITAMIMHVLKTHKRKFDYLVGAKLDGFETMVQITDDAPIIIIEGDEYLTSPLDLTPKFLHYHHHIGLISGVAWDHINVYPTFEEYVKQFDAFADSTPKGGILIYSESDDLATLVADKPRPDVQAIGYSAPKHEIVNGITYLLTDKGKIELEVFGKHNLKNINAAKNVCLKIGITEAMFYDAIKTFKGAANRLEILGRGKHNVVFKDFAHAPSKLKATSKAVKKQFSDRKLIAVLELHTFSSLNKEFLSQYKDTYKAPDEPIVYFNPETVKHKRLEEITEADIIEAFDNPKLNVFTDSKKLEEFLFSHDWKHSNLLLMSSGNFGGIDLKKLTSHVLNQHAEGHHHHHH | soluble
6 | MSLAPRDLIDIDRIFMEPAVADYPRGREILSRFPNAERIAVPSHWNIPELHGNEGSVEDWVRIKRSTLVLGVKKGLAMRPNGRSAHFIAPSTSNGCAMACAYCYVPRRKGFSNPISLFVNVEAVSAAIARHAAKQGPLPEPDQIDEAAWVYDLGENGDLSVDAMICDTVRDLVGLFRTLPNAKGSFATKAVNRDLLAYDPQGRTRIRFSLMPAPIARVVDVRTAPIRERIAAIDDFVAAGYEVHVNFSPVILYEGWEADWAELFAEIDGSISDAAKAQLKCEIIMLTHNAGLHEVNLGWHPKAEALLWRPDIQETKRSEGGGDNLRYRTGEGHHHHHH | not soluble
7 | MSLAQLEHALQHDLQRLAHGGEPWVRPRVHPAGHVYDVVIVGAGQSGLGAAFALQRERVHNVLVIDENPPGQEGPWVTYARMQTLRTPKQITSIDLGVPTLTFRAWWEAQHGAAGWDALDKIPRGTWMDYLRWYRAALRLPVRNATQLVRIEPDAAPGIHRLHLAMGAPLMARKIILATGIQGGGQWQVPEWITQALPAQRYAHTSGPIDYAALAGKRVGILGGGASAFDNACFALDQGVARAEVFVRRAALPRVNPIRHMEQAGIIPRFAALPDADKYRMMASFFGRNQPPTNDTFQRACAHAGFALHLDAPWLGVEEHNDVVVVRTPQGEHRFDFLAIATGLVTDPRLRPELAALSGRIACWADRYQAPPGQANPVLDAHPYLGPGFELLPRTPDDAAAVDGLFAFNYSALINHGLSAAALSGLKVALPRLARAVADQLFLDDRQAMVEAYLGYDQAEFVGQWPQPTQAVALEHHHHHH | soluble
8 | MSLARANIDTDAILPKQFMKSIERTGFGVHLFDGFRYLDAGSLGMDCSRRPENPDFILNWPRYREASILLAGANFGCGSSREHAPWAIEQYGFRVLIASSFADIFRDNCFKNGLLPIVLASETMDRLFDEVSHQVGFELEVDLPRQTISCPAGWCIEFEMDSIRKAHLLEGIDEIGSTLSLSKKIGDFERARRQSHPWFFGAEGHHHHHH | not soluble
9 | MSLARFFQPKKHSTLDTKHQPVTIERLDHQGSGLAFLHKKPLFVDGALPGEEVLIQLTENKSKYARGQLIKVLKPSAERVAPFCAHYAQCGGCDLQHLDRAGQIHHKQQALSQLMVKFAGQSLALSAPVCSDDQGYRRRARLSLMWDKKTQQLQLGFRRKQSKAIVNVTHCPVLEPSLNALLPDLNALLSEWSQPERLGHVELVKGDNTRVLVLRHLGALIEQDQQRLTDFASQNQLTLYLMLEAGELQHVQGEAPYCEETGSRLSFLPSHFIQVNRAVNQHMVVQALNWLEVSPQERVLDLFCGLGNFTLPLAKQAQAVVGVEGVDEMVQHATHNAKLNQINNVAFYQANLEQDMTSASWAQQKFAKVLLDPARAGAEGIVDQLSALGAKRVVYVSCNPATLARDSQSLLSQGFRLEKLGMLDMFPHTSHLESMALFVKKGEGHHHHHH | soluble
10 | MSLATEQIQHIAIVGCVHGKYREMYRQLSEYEKSTGKEISFVICTGDMQTLRYEADLVYLKVPPKYKQMGDFHLYYEGKEKAPYLTLFIGGNHESSNVLLHLYNGGFVCFNMYYLGVCSCININGLRIVGVSGIYKSFDEKKPYTYPPSPNDVVSLFHTRNYVIQMLSNLSQSSQIDISLSHDWPQGIVMKGNYKQLYRFQPGFKKDGASLGSPINKVILNTLKPKYWISGHMHCEYHAEEGPTHFIALGKIGYKNAISYLDLPLKQKTDLEYDKDWVCNLIMTWPAFSNKAQFPDLSYSISELLSKRTKELDKKIIELWEKYIGLKIIYDSDTFDIQFTSRRFYIEKIYNELNINEGHHHHHH | soluble
11 | MSLATSRTVLPDDLLINASDEVLTRQDLVLTALGRRPADRLLRVGRLLDVHSRTWLDDQEIVIKGRRIAYVGPAGSYAGEVNERFSEPDLAAVPGFGEAHKHIESSHLTPEWEAALVMPHGVTWTCEASHEFSNVNGARNLEFWLEARRRGSPMKIFPLPGSAVPPTAYEWGGGWFGYDEQKAFLSESLMVAGLDEVMDWPSISDPGNPSYDRLWGMIGATFEQRGVVEGHGAGLRDMASINAFAAAGLASDHEGWFLDEIWQKLLHGLFIELRPHSLPEVIRGLIDKGLTDWSQIALVTDDRSASDTLKIGATDHNVRLAIENGLAPETAIQCVTLNPARHMRLTPWVGSIAPGRFADIVLLSDVASLSIEKVWADGRPASEGATFIGVRPEIDWPQWATRTVKIDRTVTADDFRIEAPPNRTTVNAALLRPFHWHDDFITMELPVEEGAVQRDAARNVTKFSIVDRFSGEARVSRMFWLGTGPRTPETALASTLGHDKHNIWTVGSSDEAMAISVNALNEQQGGWVLVSGGKILARVRYEVGGLMTARSAEALDAEMQALYAAGAGIDWMYEPTFSPRWWPGFPERLSFATLTCSPWRWVLVAPSELAPDGFVNVLTGKTHPIVWEGHHHHHH | soluble
12 | MSLATSYVGTVAGEKITTKEFKYFLGYVKIQMENDAQLQDQASKEAFWDSKIEGVDAKELAKQKALDSCKEFKIQLLKARERGLFLNDKDMQEIENSITTLLNQMAQFDQAAKNTGVEVMSAEEMLKDTYGVTIQEYKEILKDLRLVLKLVEDEQKNITITEEELRNRYNENKDVFDKITVRHIIFYTINPKTDVSLSEDAKKKAYENAKKALERANKGEDMEALALELSEDSGVEGNKGILEINSLKVNEPKLSNLVKWAYEHKVGDTDIVETGYGYHVVKIEKRTEYKDVVQNVKNVILSERYNQILGQWKQEPQYDLKKNEFALKRIKEGHHHHHH | soluble
13 | MSLDAAAATLPRKSGSVDRLVRLAEADMAGVNRLITDRMQSDVAIIPALAEHLIAAGGKRLRPLMTVAAARLAGADNDHFQKLAAAVEFIHTATLLHDDVVDGSQLRRGKVAAHLIWGGAQSVLVGDFLFARAFELMVETNSMKALEILARASRVIAEGEVLQLMRSHDLNLSQAVYLEIIQAKTAELFAAASEAGAVSAGVDVAESEALRDYGLNLGLAFQLADDALDYGGATETLGKNAGDDFREGKATLPLLLAIARSGPREAEFWERAIGRREQTEADFRRARELIIGSGALDATLDLAADYADKAKAALAMFPANDWREALEELADFAVSRRAEGHHHHHH | soluble
14 | MSLDAISAATHSDPYFYYTRLRARGGLTYDCALRLWVASSAAAVAAVLDHPACQVRPSTEPVPQAIAGRPAGQLFGRLMRMNDGPRQRCPRAAIEPALQGLCTAGLETHLARWQPALAGPACAADLQRWQFVLPVALLASLLGVPAEQCETLARRTGEFVACFSPLSDQPRLQAADRAALELDAQMQALVQAPQHSPLLRQILDRSGELAPADLRANLAGLLAQTHDACAGLVGNSLVALLAAPAMQQRLRQEPGLLGDWLLERQRLDPPVQNTRRFVTAPCTVHGVELQAGETILVLLAAANQDPALAAITGSNPAHQGFSFGAGAHRCPGRELALGIVRCLLHALLQGPGLDALALDWQYQASVNGRIPLFSDRGEAEGHHHHHH | not soluble
15 | MSLDEAWKSLEKLRGVKLLPGNKVLLKRGEVFNGELEITGQGIPEDRIYIDAYGDDERKPCIVGYDTSLYAARICNSDYITMQNLEIVNTGRQPLPYRSGLKIECMDYGVSQNIVVNNVTVRDVNGSLVKEKGGGCGIYIVNGGEKKISTFNRLTIENCHILRCTRNAMIWAAYSDRQNWHPSKHTVIRGNLIEEVPGDGIVPIGCDSTLIEYNVMRDCPDMLPDTEAAAGIWPWSCDNTLVQFNEVSGHKAPWDAQGFDSDWNCRGTVIQYNYSHDNYGGLVLVCNDGTADASFNVGNLGTIVRYNVSIGDGVRPEPTRAGMFSPAVHLAGPVKDSRITRNIIHVNRKPAADIDRTMITLDSWGGYPDSTFISGNIFYAPESSRFQLTESTHNFFEGNYYLGRFEKLPEDGKACQSAEIYQKEVLAKDENGYQGLALLMDTVEVTGVKGVFVNKEAIENFFSRLEKEGHHHHHH | not soluble
16 | MSLDGEQTTREPVLKAMFLADTHLLGEFLGHWLDKLRREWQMERAFQTALWLLQPEVVFILGDIFDEGKWSTPEAWADDVERFQKMFRHPSHVQLKVVAGNHDIGFHYEMNTYKVERFEKVFSSERLFSWKGINFVMVNSVALNGDGCGICSETEAELIEVSHRLNCSREARGSSRCGPGPLLPTSAPVLLQHYPLYRRSDANCSGEDAAPAEERDIPFKENYDVLSREASQKLLWWLQPRLVLSGHTHSACEVHHGGRVPELSVPSFSWRNRNNPSFIMGSITPTDYTLSKCYLPREEGHHHHHH | not soluble
